B1: E1 domain of human APLP2 (domain or fragment, UniProt Q06481 46-205, looked up)
chain: AVAEPQIAMFCGKLNMHVNIQTGKWEPDPTGTKSCFETKEEVLQYCQEMYPELQITNVMEANQRVSIDNWCRRDKKQCKSRFVTPFKCLVGEFVSDVLLVPEKCQFFHKERMEVCENHQHWHTVVKEACLTQGMTLYSYGMLLPCGVDQFHGTEYVCCPQ
modifications: biotin (EZ-Link NHS-PEG4-Biotin, 1:1 molar ratio)
notes: human amyloid beta precursor like protein 2, E1 domain; host and tags are those told for the E1 domains in general; source: E. coli Origami2(DE3), purified (as told for the E1 domains)
B2: FN1–FN3 region of human CNTN4 (domain or fragment, UniProt Q8IWV2 599-899, looked up)
chain: PPEAVTIDEITDTTAQLSWRPGPDNHSPITMYVIQARTPFSVGWQAVSTVPELIDGKTFTATVVGLNPWVEYEFRTVAANVIGIGEPSRPSEKRRTEEALPEVTPANVSGGGGSKSELVITWETVPEELQNGRGFGYVVAFRPYGKMIWMLTVLASADASRYVFRNESVHPFSPFEVKVGVFNNKGEGPFSPTTVVYSAEEEPTKPPASIFARSLSATDIEVFWASPLEKNRGRIQGYEVKYWRHEDKEENARKIRTVGNQTSTKITNLKGSVLYHLAVKAYNSAGTGPSSATVNVTTRKP
notes: human contactin 4, FN1–FN3; source: E. coli BL21(DE3), purified (IMAC, 3C protease cleavage, ion exchange, gel filtration)

Tests used:
Test in all cases: BLI; biotinylated E1 domain ([…] nM) immobilised on streptavidin tips, CNTN FN1–FN3 in solution; room temperature; 150 mM NaCl, 10 mM Na-Hepes pH 7.5, 1 mg/ml BSA, 0.02% Tween-20; BLItz or Octet K2; KD from the signal at equilibrium
Conditions in all cases: both partners purified
[1] = target: T1, FN1–FN3 region of CNTN5 titrated against human APLP1(E1) and human APLP2(E1) ( (chicken, human, mouse and …, UniProt O94779 673-972))
T1 construct: contactin 5, FN1–FN3; source: E. coli BL21(DE3), purified (IMAC, 3C protease cleavage, ion exchange, gel filtration)
T1 sequence (looked up): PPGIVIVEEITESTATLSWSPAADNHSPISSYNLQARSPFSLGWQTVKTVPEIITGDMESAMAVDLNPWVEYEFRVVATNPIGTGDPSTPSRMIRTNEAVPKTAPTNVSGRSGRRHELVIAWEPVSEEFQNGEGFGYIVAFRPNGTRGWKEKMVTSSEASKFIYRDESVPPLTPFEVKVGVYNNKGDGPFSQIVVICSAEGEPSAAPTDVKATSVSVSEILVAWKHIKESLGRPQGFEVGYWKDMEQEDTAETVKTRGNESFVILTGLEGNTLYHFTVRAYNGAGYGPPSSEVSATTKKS

[2] = target: B2
[3] = target: B1

Binder: B1
- Kd [1]: ~38 µM
- Kd [2]: 6.3 µM

Binder: B2
- fold decrease in affinity against human CNTN4 with APLP1 [3]: 4 fold

Source: paper PMC8808184 (The Journal of Biological Chemistry, 2021)
